The values below come from PMC4719306 (Genes & Development, 2016).

The labels stand for the following.
B1: Strep-tagged N-terminal BRCT1–2 domain fragment of PTIP (recombinant) (domain or fragment)
chain: VPEELFREVKYYAVGDIDPQVIQLLKAGKAKEVSYNALASHIISEDGDNPEVGEAREVFDLPVVKPSWVTLSVQCGALLPVNGFSPESCQIFFGLTACLSQVSSEDRSALWALVTFHGGSCQLNLNKKCTHLIVPEPKGEKYERAVKRTSIKIVTPDWVLDCVSEKRRKDEAFYHP
B2: Flag-tagged full-length PA1 (recombinant) (natural protein, UniProt Q99L02 1-253, looked up)
chain: MSLALGHGTIAGSTAAPLSEEGEVTSGLQALAVEDTGGPSVSASKAEEEGKGSQEEAGREGSRPEEALEAPSAASDERAEGEAEDWCVPCSDEEVELPANGQSWMPPPSEIQRLYELLATQGTLELQAEILPRRPPTPEAQSEEERSDEEPEAKEEEEEKPHMPTEFDFDDEPMTPKDSLIDRRRTPGSSARSQKREARLDKVLSDMKRHKKLEEQILRTGRDLFSLDSEGPSPTSPPLRSSGNSLFPRQRKY

Test [1] concerns the target B2. In words: ITC.
Test [2] addresses B1. In words: ITC. A general note: ITC needs no label: the signal is the heat of the interaction.

The Kd is a measure of binding affinity in units of concentration. With B1, the equilibrium dissociation constant (Kd) in test [1] was 7.1 nM.
For orientation: stoichiometry N means the number of molecules, sites or subunits per partner or assembly. With B2, in test [2], the dH was -26 kcal/mol and the “stoichiometry N” value stood at 1.
